From the supplement of paper PMC7125110
± gives the standard error. For part of these data: Variants at the floor of the assay were thinned out.

B1: glmS ribozyme (parent)
chain: AUAAAAGCGCCAGAACUACAGAAAUGUAGUUGACGAGGAGGAGGUUUAUCGAAUUUUCGGCGGAUGCCUCCAAA

Experiments:
Conditions in all cases: with glucosamine-6-phosphate
glucosamine-6-phosphate [1] = variants of: B1; assay: kcat; higher = faster cleavage; RNA array
Procedure, shortened: (§1)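 The measurements used barcoded ribozyme variants on sequenced MiSeq chips, transcribed in situ by E. coli RNA polymerase and tracked at 37 °C with a hybridised Cy3 probe. Glucosamine-6-phosphate, 40 μM to 10 mM in HEPES/KCl/Mg(OAc)2 buffer, was flowed in while tiles were imaged over ~14 h. Baseline-normalised signals, also normalised to non-cleaving reference variants, gave per-tile medians that were fit to one- or two-exponential decays for kobs. kcat and KM resulted from weighted Michaelis–Menten fits across concentrations.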

glucosamine-6-phosphate [2] = variants of: B1; assay: KM; higher = weaker cofactor use; RNA array
Procedure, shortened: as §1

glucosamine-6-phosphate [3] = variants of: B1; assay: self-cleavage kobs at 40 uM GlcN6P; higher = faster cleavage; RNA array
Procedure, shortened: as §1

glucosamine-6-phosphate [4] = variants of: B1; assay: self-cleavage kobs at 160 uM GlcN6P; higher = faster cleavage; RNA array
Procedure, shortened: as §1

glucosamine-6-phosphate [5] = variants of: B1; assay: self-cleavage kobs at 640 uM GlcN6P; higher = faster cleavage; RNA array
Procedure, shortened: as §1

glucosamine-6-phosphate [6] = variants of: B1; assay: self-cleavage kobs at 2500 uM GlcN6P; higher = faster cleavage; RNA array
Procedure, shortened: as §1

glucosamine-6-phosphate [7] = variants of: B1; assay: self-cleavage kobs at 10000 uM GlcN6P; higher = faster cleavage; RNA array
Procedure, shortened: as §1

Variant | kcat (glucosamine-6-phosphate [1]) | KM (glucosamine-6-phosphate [2]) | self-cleavage kobs at 40 uM GlcN6P (glucosamine-6-phosphate [3]) | self-cleavage kobs at 160 uM GlcN6P (glucosamine-6-phosphate [4]) | self-cleavage kobs at 640 uM GlcN6P (glucosamine-6-phosphate [5]) | self-cleavage kobs at 2500 uM GlcN6P (glucosamine-6-phosphate [6]) | self-cleavage kobs at 10000 uM GlcN6P (glucosamine-6-phosphate [7])
G40U U46G | 0.00101 ± 0.00013 s⁻¹ | 1860 ± 390 µM | 2.93e-05 ± 1.4e-05 s⁻¹ | 7.71e-05 ± 1.5e-05 s⁻¹ | 0.000242 ± 3.9e-05 s⁻¹ | 0.000669 ± 8.8e-05 s⁻¹ | 0.000785 ± 0.00012 s⁻¹
U31C A53G C70U | 0.0038 ± 0.00074 s⁻¹ | 620 ± 200 µM | 0.000212 ± 4.6e-05 s⁻¹ | – | 0.00265 ± 0.00055 s⁻¹ | 0.00272 ± 0.00079 s⁻¹ | 0.00339 ± 0.00081 s⁻¹
G37A A48C | 1.56e-05 ± 6e-07 s⁻¹ | 1270 ± 290 µM | – | < 1e-05 s⁻¹ | – | – | –
A53U A64G | 0.0234 ± 0.0024 s⁻¹ | 1970 ± 260 µM | 0.000491 ± 6.1e-05 s⁻¹ | 0.00148 ± 0.00041 s⁻¹ | 0.00551 ± 0.0013 s⁻¹ | 0.0138 ± 0.0041 s⁻¹ | 0.0195 ± 0.0038 s⁻¹
U30C A64G | 0.000351 ± 3.3e-05 s⁻¹ | 1100 ± 200 µM | – | 4.88e-05 ± 1.1e-05 s⁻¹ | 0.000122 ± 1.4e-05 s⁻¹ | 0.000267 ± 3e-05 s⁻¹ | 0.000293 ± 4.9e-05 s⁻¹
C10U G35A | 1.32e-05 ± 1.8e-06 s⁻¹ | – | – | – | – | – | < 1e-05 s⁻¹
U47C C67U | 0.000295 ± 6.9e-05 s⁻¹ | – | – | 6.7e-05 ± 2.4e-05 s⁻¹ | 0.000131 ± 3.2e-05 s⁻¹ | 0.000177 ± 3.5e-05 s⁻¹ | 0.000358 ± 6e-05 s⁻¹
U46A A64C | 4.04e-05 ± 4.1e-06 s⁻¹ | – | < 1e-05 s⁻¹ | – | – | – | –
G29A A39C | 0.000943 ± 4.4e-05 s⁻¹ | 1820 ± 150 µM | 2.46e-05 ± 8.5e-06 s⁻¹ | 7.61e-05 ± 1.5e-05 s⁻¹ | 0.000243 ± 3.2e-05 s⁻¹ | 0.000521 ± 8.6e-05 s⁻¹ | 0.000813 ± 9.1e-05 s⁻¹
A15C A39U | 0.00476 ± 0.00092 s⁻¹ | 2170 ± 610 µM | 0.000106 ± 1.2e-05 s⁻¹ | 0.000264 ± 5e-05 s⁻¹ | 0.000744 ± 0.00036 s⁻¹ | 0.00216 ± 0.00041 s⁻¹ | 0.00417 ± 0.00045 s⁻¹
G51U U55G | < 1e-05 s⁻¹ | 76.4 ± 18 µM | – | – | – | – | < 1e-05 s⁻¹
A39G C58G | 0.000195 ± 2.9e-05 s⁻¹ | 3340 ± 1100 µM | – | – | 3.89e-05 ± 1.2e-05 s⁻¹ | 7.24e-05 ± 1.7e-05 s⁻¹ | 0.000151 ± 2.3e-05 s⁻¹
G37C C68G | 1.8e-05 ± 3.8e-06 s⁻¹ | – | – | – | – | – | –
A42U C71U | 0.000154 ± 2e-05 s⁻¹ | 1320 ± 400 µM | < 1e-05 s⁻¹ | – | 4.75e-05 ± 6.4e-06 s⁻¹ | 0.000122 ± 1.6e-05 s⁻¹ | 0.000129 ± 1.4e-05 s⁻¹
C10U U30G | < 1e-05 s⁻¹ | – | < 1e-05 s⁻¹ | < 1e-05 s⁻¹ | < 1e-05 s⁻¹ | – | –
C11U C71G | 0.000109 ± 9.1e-06 s⁻¹ | 408 ± 150 µM | – | – | 7.07e-05 ± 1.2e-05 s⁻¹ | 8.38e-05 ± 1.2e-05 s⁻¹ | 0.000111 ± 1.2e-05 s⁻¹

Variant | kcat (glucosamine-6-phosphate [1]) | KM (glucosamine-6-phosphate [2]) | self-cleavage kobs at 40 uM GlcN6P (glucosamine-6-phosphate [3]) | self-cleavage kobs at 160 uM GlcN6P (glucosamine-6-phosphate [4]) | self-cleavage kobs at 640 uM GlcN6P (glucosamine-6-phosphate [5]) | self-cleavage kobs at 2500 uM GlcN6P (glucosamine-6-phosphate [6]) | self-cleavage kobs at 10000 uM GlcN6P (glucosamine-6-phosphate [7])
U45A C58A | 0.00117 ± 0.00038 s⁻¹ | – | – | – | 0.000188 ± 3.8e-05 s⁻¹ | 0.000822 ± 0.00019 s⁻¹ | 0.000803 ± 0.00016 s⁻¹
C11A C50A | 1.11e-05 ± 3.1e-06 s⁻¹ | – | – | – | – | – | –
U54G U56A U69G | 5.38e-05 ± 1.1e-05 s⁻¹ | – | 4.11e-05 ± 1.9e-05 s⁻¹ | – | 7.97e-05 ± 1.8e-05 s⁻¹ | 4.21e-05 ± 1.1e-05 s⁻¹ | 6e-05 ± 1.8e-05 s⁻¹
U54G C61U | 2.79e-05 ± 5.8e-06 s⁻¹ | – | – | – | – | 3.11e-05 ± 1.3e-05 s⁻¹ | 2.39e-05 ± 1e-05 s⁻¹
A14G U30C | 0.00152 ± 0.00022 s⁻¹ | 1880 ± 500 µM | 3.48e-05 ± 8e-06 s⁻¹ | 9.58e-05 ± 1.9e-05 s⁻¹ | 0.000552 ± 0.00011 s⁻¹ | 0.000958 ± 0.00012 s⁻¹ | 0.00122 ± 0.00013 s⁻¹
G13C A14C C61A C67U | 3.08e-05 ± 1.3e-05 s⁻¹ | – | – | – | 4.47e-05 ± 1.8e-05 s⁻¹ | – | –
G41C C70U | 0.000551 ± 0.00016 s⁻¹ | – | 4.81e-05 ± 7.7e-06 s⁻¹ | 9.61e-05 ± 2.4e-05 s⁻¹ | 0.000173 ± 2.2e-05 s⁻¹ | 0.000498 ± 6.2e-05 s⁻¹ | 0.000516 ± 5.8e-05 s⁻¹
U45C U55G | 0.0035 ± 0.0008 s⁻¹ | 2770 ± 960 µM | 6.05e-05 ± 8.1e-06 s⁻¹ | – | 0.000502 ± 9.9e-05 s⁻¹ | 0.00165 ± 0.00048 s⁻¹ | 0.00283 ± 0.00033 s⁻¹
U45C C71U | 0.00401 ± 0.00038 s⁻¹ | 2470 ± 340 µM | 6.69e-05 ± 7.5e-06 s⁻¹ | 0.000236 ± 5.8e-05 s⁻¹ | 0.000828 ± 0.00012 s⁻¹ | 0.00167 ± 0.00031 s⁻¹ | 0.00338 ± 0.00033 s⁻¹
C58A C71U | 0.00051 ± 0.0001 s⁻¹ | 3890 ± 1200 µM | – | 4.42e-05 ± 1.2e-05 s⁻¹ | 7.43e-05 ± 7.2e-06 s⁻¹ | 0.000183 ± 1.6e-05 s⁻¹ | 0.000386 ± 3.2e-05 s⁻¹
C34U G60C | < 1e-05 s⁻¹ | – | < 1e-05 s⁻¹ | – | – | – | –
G41A G66C | 3.76e-05 ± 1.2e-06 s⁻¹ | 1410 ± 200 µM | – | – | – | 2.49e-05 ± 1.2e-05 s⁻¹ | 3.27e-05 ± 9.4e-06 s⁻¹
A39G G43A | 0.0004 ± 8.6e-05 s⁻¹ | 5960 ± 2100 µM | – | – | 5.25e-05 ± 1.8e-05 s⁻¹ | 0.000109 ± 2.1e-05 s⁻¹ | 0.000259 ± 4.9e-05 s⁻¹
G40U U55A | 0.00366 ± 0.0016 s⁻¹ | – | 0.00026 ± 5.9e-05 s⁻¹ | 0.000217 ± 5.8e-05 s⁻¹ | 0.000764 ± 0.00022 s⁻¹ | 0.00204 ± 0.00041 s⁻¹ | 0.00304 ± 0.00059 s⁻¹
A36G U55C | 1.01e-05 ± 4e-06 s⁻¹ | – | – | – | – | – | –
A39U A64G | 0.031 ± 0.012 s⁻¹ | – | 0.000447 ± 5.6e-05 s⁻¹ | 0.00134 ± 0.00017 s⁻¹ | 0.00498 ± 0.0006 s⁻¹ | 0.0101 ± 0.0015 s⁻¹ | 0.0327 ± 0.0047 s⁻¹
